Experimental data reported in article doi:10.1101/702415 (bioRxiv, 2019).

Target: T1, Ups1 (S. cerevisiae, UniProt Q05776 1-175)
T1 sequence: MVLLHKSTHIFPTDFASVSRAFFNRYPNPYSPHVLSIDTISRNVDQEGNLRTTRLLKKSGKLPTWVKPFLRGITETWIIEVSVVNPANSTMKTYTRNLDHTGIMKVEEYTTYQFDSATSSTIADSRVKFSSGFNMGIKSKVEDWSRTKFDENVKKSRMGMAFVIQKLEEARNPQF
Assay: crystal structure

- binding result: binds
B1: Mdm35 (natural protein)
chain: MGNIMSASFAPECTDLKTKYDSCFNEWYSEKFLKGKSVENECSKQWYAYTTCVNAALVKQGIKPALDEAREEAPFENGGKLKEVDK
